From US8816055 come the findings set out here.

The chains are these.
B1: X115-B07 (antibody, V domains shown)
VL: EIVLTQSPGTLSLSPGERATLSCRTSQFVNSNYLAWYQQKPGQAPRLLIYGASSRATGIPDRFSGSGSGTDFTLTISRLEPEDFAVYYCQQSSRTPWTFGQGTKVEIK
VH: EVQLLESGGGLVQPGGSLRLSCAASGFTFSHYLMTWVRQAPGKGLEWVSYISPSGGHTIYADSVKGRFTISRDNSKNTLYLQMNSLRAEDTAVYYCAMVGQGIRGRSRTSYFAQWGQGTLVTVSS
B2: X115-E09 (antibody, V domains shown)
VL: EIVLTQSPGTLSLSPGERATLSCRTSQFVNSNYLAWYQQKPGQAPRLLIYGASSRATGIPDRFSGSGSGTDFTLTISRLEPEDFAVYYCQQSSRTPWTFGQGTKVEIK
VH: EVQLLESGGGLVQPGGSLRLSCAASGFTFSHYLMTWVRQAPGKGLEWVSYISPSGGHTIYADSVKGRFTISRDNSKNTLYLQMNSLRAEDTAVYYCARVAQGIAARSRTSSVDQWGQGTLVTVSS
B3: X115-H06 (antibody, V domains shown)
VL: EIVLTQSPGTLSLSPGERATLSCRTSQFVNSNYLAWYQQKPGQAPRLLIYGASSRATGIPDRFSGSGSGTDFTLTISRLEPEDFAVYYCQQSSRTPWTFGQGTKVEIK
VH: EVQLLESGGGLVQPGGSLRLSCAASGFTFSHYLMTWVRQAPGKGLEWVSYISPSGGHTIYADSVKGRFTISRDNSKNTLYLQMNSLRAEDTAVYYCARVAQGISARSRTSYFDYWGQGTLVTVSS
B4: X115-D05 (antibody, V domains shown)
VL: EIVLTQSPGTLSLSPGERATLSCRTSQFVNSNYLAWYQQKPGQAPRLLIYGASSRATGIPDRFSGSGSGTDFTLTISRLEPEDFAVYYCQQSSRTPWTFGQGTKVEIK
VH: EVQLLESGGGLVQPGGSLRLSCAASGFTFSDYMMAWVRQAPGKGLEWVSSIVPSGGHTHYADSVKGRFTISRDNSKNTLYLQMNSLRAEDTAVYYCARVARGIAARSRTSYFDYWGQGTLVTVSS
B5: X115-A03 (antibody, V domains shown)
VL: DIQMTQSPSTLSASVGDRVTITCRASQSISSWLAWYQQKPGKAPKLLIYKASTLESGVPSRFSGSGSGTEFTLTISSLQPDDFATYYCQQYNTYWTFGQGTKVEIK
VH: EVQLLESGGGLVQPGGSLRLSCAASGFTFSHYIMMWVRQAPGKGLEWVSGIYSSGGITVYADSVKGRFTISRDNSKNTLYLQMNSLRAEDTAVYYCAWRRIGVPRRDSFDMWGQGTMVTVSS
B6: X115-G04 (antibody, V domains shown)
VL: DIQMTQSPSTLSASVGDRVTITCRASQSISSWLAWYQQKPGKAPKLLIYKASTLESGVPSRFSGSGSGTEFTLTISSLQPDDFATYYCQQYNTYWTFGQGTKVEIK
VH: EVQLLESGGGLVQPGGSLRLSCAASGFTFSHYIMMWVRQAPGKGLEWVSGIYSSGGITVYADSVKGRFTISRDNSKNTLYLQMNSLRAEDTAVYYCAYRRTGVPRRDEFDIWGQGTMVTVSS
B7: X115-D01 (antibody, V domains shown)
VL: DIQMTQSPSTLSASVGDRVTITCRASQSISSWLAWYQQKPGKAPKLLIYKASTLESGVPSRFSGSGSGTEFTLTISSLQPDDFATYYCQQYNTYWTFGQGTKVEIK
VH: EVQLLESGGGLVQPGGSLRLSCAASGFTFSIYSMHWVRQAPGKGLEWVSSIYPSRGMTWYADSVKGRFTISRDNSKNTLYLQMNSLRAEDTAVYYCAYRRTGIPRRDAFDIWGQGTMVTVSS
B8: X115-F02 (Fab, V domains shown)
VL: DIQMTQSPSTLSASVGDRVTITCRASQSISSWLAWYQQKPGKAPKLLIYKASTLESGVPSRFSGSGSGTEFTLTISSLQPDDFATYYCQQYNTYWTFGQGTKVEIK
VH: EVQLLESGGGLVQPGGSLRLSCAASGFTFSHYIMMWVRQAPGKGLEWVSGIYSSGGITVYADSVKGRFTISRDNSKNTLYLQMNSLRAEDTAVYYCAYRRIGVPRRDEFDIWGQGTMVTVSS

The target in the assay is human plasma kallikrein (active form) (human), P03952. Briefly: Ki,app on full length pKal, enzyme inhibition. The following applies: remark: other sources report otherwise.
Sequence of human plasma kallikrein (active form) (human), P03952 (P03952 20-390, chain 1 of 2): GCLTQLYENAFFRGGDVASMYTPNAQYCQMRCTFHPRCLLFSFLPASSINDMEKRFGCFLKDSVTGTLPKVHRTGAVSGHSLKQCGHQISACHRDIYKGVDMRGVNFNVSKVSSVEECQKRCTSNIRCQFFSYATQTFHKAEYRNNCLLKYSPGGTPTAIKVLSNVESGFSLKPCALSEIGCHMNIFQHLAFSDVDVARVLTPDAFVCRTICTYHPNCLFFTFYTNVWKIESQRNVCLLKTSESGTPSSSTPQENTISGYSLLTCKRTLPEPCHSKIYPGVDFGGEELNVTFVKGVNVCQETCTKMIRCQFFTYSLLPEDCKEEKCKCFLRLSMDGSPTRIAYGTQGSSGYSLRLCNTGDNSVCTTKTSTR
Sequence of human plasma kallikrein (active form) (human), P03952 (P03952 391-638, chain 2 of 2): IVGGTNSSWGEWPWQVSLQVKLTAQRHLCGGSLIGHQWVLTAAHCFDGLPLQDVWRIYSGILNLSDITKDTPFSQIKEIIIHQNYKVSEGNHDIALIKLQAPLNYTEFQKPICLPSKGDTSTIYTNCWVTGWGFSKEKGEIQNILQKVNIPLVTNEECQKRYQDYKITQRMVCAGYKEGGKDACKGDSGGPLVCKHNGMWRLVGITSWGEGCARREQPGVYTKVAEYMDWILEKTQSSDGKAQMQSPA
Consider B1, for which the Ki is 0.33 nM.
To B2 belongs 0.34 nM; to B3, 0.35 nM.
Take B4: the Ki was 0.25 nM.
As for B5, the figure is 0.16 nM; as for B6, 0.6 nM.
As for B7, the figure is 0.18 nM.
As for B8, the figure is 0.089 nM.
